# In the supplement of paper PMC7125110:
# ± gives the standard error. For some assays here: Variants at the floor of the assay were thinned out.
# B1: glmS ribozyme (parent)
# chain: AUAAAAGCGCCAGAACUACAGAAAUGUAGUUGACGAGGAGGAGGUUUAUCGAAUUUUCGGCGGAUGCCUCCAAA
# Key:
# Conditions in all cases: with glucosamine-6-phosphate
# [1] = variants of: B1; assay: kcat; higher = faster cleavage; RNA array
# How it was run: (§1)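 Barcoded ribozyme variants, transcribed in situ by E. coli RNA polymerase on sequenced MiSeq chips, were followed via a hybridised Cy3 probe at 37 °C. Glucosamine-6-phosphate ranged from 40 μM to 10 mM in HEPES/KCl/Mg(OAc)2 buffer. kobs came from decay fits to per-tile medians, and kcat and KM from weighted Michaelis–Menten fits.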
# [2] = variants of: B1; assay: self-cleavage kobs at 2500 uM GlcN6P; higher = faster cleavage; RNA array
# How it was run: as §1
# [3] = variants of: B1; assay: KM; higher = weaker cofactor use; RNA array
# How it was run: as §1
# [4] = variants of: B1; assay: self-cleavage kobs at 40 uM GlcN6P; higher = faster cleavage; RNA array
# How it was run: as §1
# [5] = variants of: B1; assay: self-cleavage kobs at 160 uM GlcN6P; higher = faster cleavage; RNA array
# How it was run: as §1
# [6] = variants of: B1; assay: self-cleavage kobs at 640 uM GlcN6P; higher = faster cleavage; RNA array
# How it was run: as §1
# [7] = variants of: B1; assay: self-cleavage kobs at 10000 uM GlcN6P; higher = faster cleavage; RNA array
# How it was run: as §1
Variant,kcat [1] [s⁻¹],self-cleavage kobs at 2500 uM GlcN6P [2] [s⁻¹],KM [3] [µM],self-cleavage kobs at 40 uM GlcN6P [4] [s⁻¹],self-cleavage kobs at 160 uM GlcN6P [5] [s⁻¹],self-cleavage kobs at 640 uM GlcN6P [6] [s⁻¹],self-cleavage kobs at 10000 uM GlcN6P [7] [s⁻¹]
C58U C68A,3.52e-05 ± 1.5e-05,5.08e-05 ± 2.1e-05,–,–,–,–,–
A12U U47C,0.0109 ± 0.0038,0.0111 ± 0.0021,1790 ± 840,0.00032 ± 3.3e-05,0.000599 ± 0.0001,0.00299 ± 0.00033,0.00873 ± 0.0011
A14G U45A U49G,0.00282 ± 0.001,0.00136 ± 0.00063,2040 ± 970,8.34e-05 ± 1.7e-05,0.000143 ± 3.9e-05,0.000745 ± 0.00011,0.00233 ± 0.00051
A15G G37U U54A U55A G60C C68G,2.16e-05 ± 6.5e-06,–,–,–,–,–,–
C16G A39C,0.000798 ± 6e-05,0.000427 ± 6.6e-05,2400 ± 310,–,4.38e-05 ± 9.6e-06,0.000184 ± 2.9e-05,0.000629 ± 7.2e-05
U30C C67G,1.07e-05 ± 2.3e-06,–,–,< 1e-05,–,–,–
A14G C58A,0.00151 ± 0.00049,0.000448 ± 6.1e-05,4260 ± 2000,2.97e-05 ± 1e-05,6.76e-05 ± 3.4e-05,0.000214 ± 2.3e-05,0.0012 ± 0.00014
A39C A48U,0.000107 ± 1.8e-05,5.68e-05 ± 1.3e-05,2930 ± 1400,< 1e-05,< 1e-05,–,8.1e-05 ± 1.2e-05
A15C U57A,7.96e-05 ± 6.3e-06,3.94e-05 ± 1.2e-05,2770 ± 750,–,–,–,6.22e-05 ± 8.8e-06
G40U C70U,0.00235 ± 0.00039,0.00132 ± 0.00013,2200 ± 510,5.55e-05 ± 7.2e-06,0.000139 ± 1.4e-05,0.000566 ± 6.5e-05,0.00186 ± 0.0002
A12C C50A U56A,< 1e-05,–,–,–,–,< 1e-05,–
A52C U69A,1.76e-05 ± 5.9e-06,–,–,–,–,–,–
A42G C58A,0.00048 ± 3.7e-05,0.000279 ± 0.00013,2480 ± 390,–,–,9.53e-05 ± 3.4e-05,0.000379 ± 9.4e-05
C11U A53G,0.00166 ± 9.2e-05,0.00111 ± 0.00013,1400 ± 120,5.07e-05 ± 5.9e-06,0.000156 ± 2e-05,0.000513 ± 4.2e-05,0.00145 ± 0.00012
G35C C58U,< 1e-05,–,–,–,< 1e-05,< 1e-05,–
C16U U31C,0.00735 ± 0.00094,0.0036 ± 0.00062,1980 ± 350,0.000149 ± 2.1e-05,0.000588 ± 0.00011,0.00161 ± 0.00048,0.00694 ± 0.0011
